Data taken from the DeepSol protein solubility set.

Assay: soluble on expression in E. coli; label from the status in PepcDB or PDB records

Row | Sequence | soluble on expression in E. coli
1 | MKFVDEASILVVAGDGGNGCVSFRREKYIPKGGPDGGDGGDGGDVWMEADENLNTLIDYRFEKSFRAERGQNGASRDCTGKRGKDVTIKVPVGTRVIDQGTGETMGDMTKHGQRLLVAKGGWHGLGNTRFKSSVNRTPRQKTNGTPGDKRELLLELMLLADVGMLGMPNAGKSTFIRAVSAAKPKVADYPFTTLVPSLGVVRMDNEKSFVVADIPGLIEGAAEGAGLGIRFLKHLERCRVLLHLIDIDPIDGTDPVENARIIISELEKYSQDLATKPRWLVFNKIDLLDKVEAEEKAKAIAEALGWEDKYYLISAASGLGVKDLCWDVMTFIIENPVVQAEEAKQPEKVEFMWDDYHRQQLEEIAEEDDEDWDDDWDEDDEEGVEFIYKR | soluble
2 | MKGEEKMPSFDIVSEVDLQEARNGVDNAVREVESRFDFRGVEATIELNDANKTIKVLSESDFQVNQLLDILRAKLLKRGIEGASLDVPDEFVHSGKTWYVEAKLKQGIESAVQKKIVKLIKDSKLKVQAQIQGEEIRVTGKSRDDLQSVMALVRGGDLGQPFQFKNFRD | not soluble
3 | MKGGIVHSDGSYPKDKFEKINGTWYYFDSSGYMLADRWRKHTDGNWYWFDNSGEMATGWKKIADKWYYFNEEGAMKTGWVKYKDTWYYLDAKEGAMVSNAFIQSADGTGWYYLKPDGTLADRPEFTVEPDGLITVK | soluble
4 | MKGKNNMSRIIVVTSGKGGVGKTTSSAAIASGLALRGKKTAVIDFDIGLRNLDLIMGCERRVVYDFVNVINGEATLNQALIKDKRNENLFILPASQTRDKDALTKDGVQRVLNDLKEMGFDFIICDSPAGIEQGALMALYYADEAIVTTNPEVSSVRDSDRILGILDSKSMRAEQGQAPIKQHLLLTRYNPARVTQGEMLSVQDVEEILHVPLLGVIPESQAVLNASNKGVPVIFDDQSDAGQAYQDTVARLLGEQVEFRFLTEAKKGIFKRLFGG | not soluble
5 | MKGRVVIADDEPITRMDIVEMLLEEGYDIVGEASDGFDAIELCKKHKPDLVLMDVKMPLLNGLKAAEVINQDELAACVVLVTAYSGREFVEEAKKAGAMGYVVKPINEKNLLPTLEVAVSKSKEFNEMKSQVKKAQVQLEDRKQIERAKGILMKKEMLSEEEAYNQIRKLSMSKRCSMGEIAKIITMNQ | not soluble
6 | MKHHHHHHHHGGLVPRGSHGMTKKIVAIWAQDEEGVIGKDNRLPWYLPAELQHFKETTLNHAILMGRVTFDGMGRRLLPKRETLILTRNPEEKIDGVATFHDVQSVLDWYSAQEKNLYIVGGKQIFQAFEPYLDEVIVTHIHARVEGDTYFPAEFDLSLFETVSSKFYTKDEKNPYDFTIQYRKRKEVLE | soluble
7 | MKHSVHFGAGNIGRGFIGEILFKNGFHIDFVDVNNQIIHALNEKGKYEIEIAQKGQSRIEVTNVAGINSKEHPEQVIEAIQKTDIITTAIGPNILPFIAELLAKGIEARRVAGNTQALDVMACENMIGGSQFLYQEVKKYLSPEGLTFADNYIGFPNAAVDRIVPAQSHEDSLFVVVEPFNEWVVETKRLKNPDLRLKDVHYEED | not soluble
8 | MKIAAIYTQSVGPLPDGEIRFENDWSGEIESNVLITGPNGCGKSTLLRAISLLWRAFGHWLGTGTRLNIKDESYTWFYRWDASCAMILDSFSPKSEDQIGLFLGSEAFLVQLKEKYPQVYWLGETVSRTKGTTPETTVFTSSEHFFLPYKNWWSHWSSQYQRLVLKGPSVDMPNLVYLDAEARRWVRPQKDIGSLSPDDSTQAWLATYEVNDNWKGQLESSLFNMKATMPGEYPEMIATLNQFFSGKRIEAEIHPGQRQRVLLDSGNDHSLDALSSGEHQVLIMLFTVQRWLQPGGVVLIDEPDLHLHPSLISPLLASIENIVARKNGQLVMTSHATDIWQRYDNMGLRIDLTDGKDAENGQR | not soluble
9 | MKIAVVGAGLTGLKTAKELAEHAKVVVFEPDDVGGLVATFREFSIEKFYHHCFRDDAFLLEEIKRCGLKSKLVWKIAKTGFAANGKIYPLNTPFEILRYPLLTFGEKIRLARFTLKSRKLNYEDFDDVGVSEGIREELGEGLLERFFMPLLRSKFGENAEKVSYAWLLGRVAIRSNRKYSGEEIGYIRHGFQQLVDKMAEGLEIRRERARIRKNARWDVNGEDFDAVVYTAPLSELGELAEKLGIPEVRYQSSVCALIGAEETLTENIYWTNIADKMSFGAVIEHTNFMPFEDYGIHLMYLAAYSTPDGWLFNLSDKEIEKLFLSDLRKLGFKTESVRFVRVFKAKYSGPIYEKGYRRKITPYRVAEGFYVAGMTSRPNYPERSMNGSIRAGKEVAEQVKEDLLLEHHHHHH | soluble
10 | MKIDYVSDLHINHWIPWNVNQIKWEKRTREIVNRLISNGNGEVLVIAGDFTEWNQQTLWVLDEAAKQYEKVYFTYGNHDLYLLSKSQKRKYSDSLGRLNDLIQKAADMKNVTPLIKTTETYKGKVFAGDVMWYLPKGIEGWDFFKGVSNDSNYIWLNGYNKVDGVRAMWKESMDWYETLENTQVDVFVSHVPPVHNPYSPFEPNTCYMVDVPFINAKHWVCGHDHLQAEFDKDGTSFHMNCIGYPYDYDNYPSVNVIPGEEVDSYKTFELKTFEIMAGDPLEHHHHHH | not soluble
11 | MKIEFFHDVICSFCFPMSDRMHEIQQEFPEIELIHRSFALGWSANDFETMFGSRAAVKEEVLTHWVHANQNDSKHRFNIEGMRKQRFDFPTSKNVLLAAKAAGYIGNQDTYWLLFDKLQEGLFVRSLNIEEPEVIEKLVKETTIDFALWKEAVASEAVWTAVQEDFALASAYGLQGVPALIINQKYLINGAVPKQQISQTIQKILAEEKQQQPLVSLTPSSEESASCEFKEGTWTCH | not soluble
12 | MKIFLDSAITTDIQDRLATEIIDGVTTNPTLIKKSNEDPDVVYKELYDMRVKDISIEVRGDTAQELAANGILYGRKYGEVATIKLPCTVEGIKACKKLSILGHKTNMTLVFSVSQAILCAKAGATYVSPFVGRLDQIGEDGIQLIRDISRVYCVSGVKTQILAASIRSPKQAEDAYLAGADICTLPVKVFDQMFKHTLTDDGLKQFAIDFGINF | not soluble
13 | MKIFNNVHCRIRNTISCSNYIFSAVWNFLISVFINKTNFNNSVYCRIFKVSIGLRKSISSTTRTRWVPVVFICSRSTNRWTGARSVNPIRNLIYIKLSILNKVRPIFRLEHHHHHH | not soluble
14 | MKIGIVGATGYGGTELVRILSHHPHAEECILYSSSGEGNVYSEGYPHLTGLADQQLKPIDMNTIKHEIDIMFLAAPPGVSSELTPKLADAGITVIDLSGDLRIKEPAEYEKWYKRTAAPKAVIQEAVYGLAELNQLQIQQAKLIANPGCFPTAVLLGLAPLAQKKLLDESFVIVDAKTGVSGAGRKASMGTHFSELNDNFKIYKVNEHQHTPEIEQALNEWQPGLGPITFSAHLVPMTRGIMATMYTRLTCDLTADDLHDLYSEFYQDSYFVRVRPKGQYPQTKEVYGSNFCDIAVTLDERTNRVTIVSVIDNLMKGAAGQAVQNFNLMNGWNEETGLTIITPIYP | not soluble
15 | MKIGVFDSGVGGFSVLKSLLKARLFDEIIYYGDSARVPYGTKDPTTIKQFGLEALDFFKPHEIELLIVACNTASALALEEMQKYSKIPIVGVIEPSILAIKRQVEDKNAPILVLGTKATIQSNAYDNALKQQGYLNISHLATSLFVPLIEESILEGELLETCMHYYFTPLEILPEVIILGCTHFPLIAQKIEGYFMGHFALPTPPLLIHSGDAIVEYLQQKYALKNNACTFPKVEFHASGDVIWLERQAKEWLKL | soluble
16 | MKIHPLSDVQAKQIGQGTSIWQYVVVLPGAVIGSDCNICSHCFIENAVVIGDRVTIKCGVQIWDGLRVEDDVFIGPNVTFTNDLFPRSKQHPKEFAKTVIQKGASIGANATILAGSTIGRNAMVGAGAVVTKSVPPNAIVVGNPARITGYVSTIPAQQKHSEIEVGENIGTVGQSAIPGVQFVRLPIIPDLRGSLSFAEFGQYLPFIPKRYFLVFDVQSREVRGEHAHKELHQFLVCVKGACSVMVDDGNCREEYILNTPGAALHIPPLVWGVQYKYSPDAVLMVLASDVYKPEDYIRDYDQFIALVKKLEHHHHHH | not soluble
17 | MKIHSYIFSLLACLVIALPGYSQVDRNETLIRSALHGLEYEIKAGFSIGGTAPLPLPVEIRSIDGYNPTLAISIGGEVTKWFAVQNKLGVIVGLRLENKAMTTEATVKNYNMEILGQGGERISGVWTGGVKTKVHTSGLTIPLMATYKLSNRWNIKAGPYFSYLLSREFSGHVYEGYLREGDPVGPKVEFTDGKIATYDFSDDLRHFQWGLQIGAGWRAFKHLNIYADLTWGLNDIFRNDFQTITFAMYPIYLNIGFGYAF | not soluble
18 | MKIIFLLFGFIFHPNNAQFDKSGVQQTLDAHNEFRSSIAKGTYVTKGLLHAPATNIMKMKWNVTIATAAQNHANKCPKGHDGPLEGVSGECMWSGHINASKGVNHLGAVAAKAWSSEYTKKGWETDVMSDEFFNSGVGHAIIMTWYSQVNVGCGVKLCQKEGDYQLAIVVCKYWGEGQGNGKIMYESGPTCSACPPNTTCDQATGLCDSKIPDIPEPIYKYDELVNSKPAYTVVMGFFLMIIVQLI | not soluble
19 | MKIIKRNGSEAVFDISKIMMAVSRANEVVQANQKLSKAQINAIAAQVEEVCSTRPHAMNVEEIQDLVENQIMEQQAFEVARKYITYRYIRTLKRSSN | not soluble
20 | MKIKQALFTAGYSSFYFDDQQAIKNGAGHDGFIYTGDPVTPGFTSVRQAGECVSVQLILENGAVAVGDCAAVQYSGAGGRDPLFLAEHFIPFLNDHIKPLLEGRDVDAFLPNARFFDKLRIDGNLLHTAVRYGLSQALLDATALASGRLKTEVVCDEWQLPCVPEAIPLFGQSGDDRYIAVDKMILKGVDVLPHALINNVEEKLGFKGEKLREYVRWLSDRILSLRSSPRYHPTLHIDVYGTIGLIFDMDPVRCAEYIASLEKEAQGLPLYIEGPVDAGNKPDQIRMLTAITKELTRLGSGVKIVADEWCNTYQDIVDFTDAGSCHMVQIKTPDLGGIHNIVDAVLYCNKHGMEAYQGGTCNETEISARTCVHVALAARPMRMLIKPGMGFDEGLNIVFNEMNRTIALLQTKD | soluble
21 | MKIKSNLKLRRIGNRHMIVEVSDSCVNLTNVYSLNGTAARLWEMVCNGEGRTAGELAEGLCKTYDVEYGRALRDVERQIEEWEKMGLLSRRGTGD | not soluble
22 | MKILHTSDWHIGKTLYGHKRYDEFEAFFSWLVETIEQEQVDVLLIAGDIFDTSTPGNRSQQLYYRFLHRVAASACRHVVIIAGNHDSPSFLSAPRELLRALDVHVTGSLSGNPADEILVLHDPKGDAELIVCAVPHLRDRDIRTAEAGESMEDKSRKLVEGIRDHYAEVINLARLQRTALSSSIPIIAMGHLFVAGGQTVEGDGVRELYVGSLAHVPAGIFPPDIDYLALGHLHVPQRVNGSSVMRYSGSPLPIGFGEADQEKSVCLIEFNRQ | not soluble
23 | MKILVALAVFFLVSTQLFAEEIGANDDLNYWSDWYDSDQIKEELPEPFEHLLQRIARRPKPQQFFGLMGKRDADSSIEKQVALLKALYGHGQISHKRHKTDSFVGLMGKRALNSVAYERSAMQNYERRRLEHHHHHH | not soluble
24 | MKIMCKQEYYNQVVQYAESIKDTSLQNCMERLEAWEKNPDRPCEIELYHDWAPYSFGFTQRYPDGSRGIVGGLLYHGSPDESFAVQLTPFKGWQIHT | not soluble
25 | MKINLDRTSSGFCIGVQGTIHVAEEKLAQSGELYCLGDVVHNEVEVKRLEALGMETIDIPAFEELRNAEVLIRAHGEPPSTYETARKNNLAITDTTCPVVAKLQRTAKMLHQLGYQVVIYGKKVHPEVIGINGQCDDEGVVIKHPDLSDPEEIAPLDLSRKTALISQTTMDVPGFYELKRNLEKLFAEHGHRNPGTQSGEWMAVRDIDITAEKTGALAMPKLVFKDTICRQVSSRNGKLRDFALANDCIVFAAGRKSSNGQVLYSICKDANPHSYFIEDVDEIRPEWFVGENGKPVESVGICGATSTPMWLLEKVANYIDKTFGDGSSNPNALEHHHHHH | not soluble
